Experimental data as given in patent publication US12186374B2 (Sanofi-Aventis Deutschland GmbH, priority 2014, dated 2025).

How the values were obtained:
patients with T2DM [1] = assay: ALT increase reported on AE form (Example 3); settings: on-treatment period
patients with T2DM [2] = assay: Patient disposition / treatment discontinuation (Example 3); assay type: in vivo; settings: Randomized population; percentages of patients randomized
Description: The discrepancy between the strata assigned by IVRS/IWRS and the information reported on electronic Case Report Form (eCRF) will be listed for all randomized patients, • Patients who have completed the 30-week treatment period, • Patients who discontinued the IMP during the 30-week treatment period, and the reasons for treatment discontinuation.

patients with T2DM [3] = assay type: in vivo, human; settings: Example 3
Description: (§1) Similar MMRM method or analysis of covariance (ANCOVA) was applied on continuous secondary efficacy endpoints and the Cochran-Mantei-Haenszel method stratified by randomization strata was applied for categorical efficacy endpoints.

patients with T2DM [4] = assay: Fasting plasma glucose change from baseline to Week 30 (Example 3); assay type: in vivo, human
Description: FPG is measured at a central laboratory. At V5 and V21, FPG will be part of the standardized meal test.
as §1

patients with T2DM [5] = assay: Treatment-emergent adverse events incl. serious, fatal, leading to discontinuation (Example 3)
[6] = PT ≥3% in any treatment group, Safety population

## Gly(A21)-Arg(B31)-Arg(B32)-human insulin [Insulin Glargine]
Patients with T2DM [1]; Example 3
  Patients with AE of ALT increase: 2 patients
Patients with T2DM [1]; PT, Safety population
  % of patients with events reported on the AE form for ALT increase: Alanine aminotransferase increased: 0.5%
  Number of patients with events reported on the AE form for ALT increase: Alanine aminotransferase increased: 2
  Number of patients with events reported on the AE form for ALT increase: Hepatic enzyme increased: 0
Patients with T2DM [1]; Safety population
  % of patients with events reported on the AE form for ALT increase: Any: 0.5%
  Number of patients with events reported on the AE form for ALT increase: Any: 2
Patients with T2DM [2]
  Reason for study treatment discontinuation: Adverse event: 3 (0.8%)
  Status at last study contact: Dead: 2 (0.5%)
Patients with T2DM [3]
  Patients reaching HbA1c<7.0% with no body weight gain and no documented symptomatic hypoglycemia: 9.0%
Patients with T2DM [3]; 30-week treatment period
  Patients reaching HbA1c<7.0% at Week 30 with no documented symptomatic hypoglycemia: 18.6%
Patients with T2DM [4]; Example 3
  FPG, LS mean change from baseline to Week 30: -0.46 mmol/L
Patients with T2DM [4]; MMRM, mITT population
  Fasting plasma glucose change from baseline to Week 30, LS Mean: -0.46 mmol/L
Patients with T2DM [4]; mITT population
  Fasting plasma glucose at Week 30, Mean: 6.69 mmol/L
  Fasting plasma glucose at Week 30, Median: 6.30 mmol/L
Patients with T2DM [5]; Example 3
  Diarrhoea, % of patients: 2.7%
  Incidence of gastrointestinal disorder (System organ class) events: 7.9%
  Nasopharyngitis, % of patients: 8.8%
  Nausea, % of patients: 0.5%
  Patients discontinuing due to nausea, number: none
  Patients reporting treatment-emergent adverse events, %: 52.3%
  Patients reporting treatment-emergent adverse events, number: 191 patients
  Patients who withdrew from treatment due to TEAEs, %: 0.8%
  Patients who withdrew from treatment due to TEAEs, number: 3 patients
  Patients with at least 1 TEAE leading to death: 2 patients
  Serious TEAEs, % of patients: 4.9%
  Serious TEAEs, number of patients: 18 patients
  Vomiting, % of patients: 0.5%
Patients with T2DM [5]; [6]
  Common TEAE, PT Diarrhoea, number of patients: 10 n
  Common TEAE, PT Diarrhoea, percentage of patients: (2.7%)
  Common TEAE, PT Headache, number of patients: 10 n
  Common TEAE, PT Headache, percentage of patients: (2.7%)
  Common TEAE, PT Influenza, number of patients: 11 n
  Common TEAE, PT Influenza, percentage of patients: (3.0%)
  Common TEAE, PT Nasopharyngitis, number of patients: 32 n
  Common TEAE, PT Nasopharyngitis, percentage of patients: (8.8%)
  Common TEAE, PT Nausea, number of patients: 2 n
  Common TEAE, PT Nausea, percentage of patients: (0.5%)
  Common TEAE, PT Upper respiratory tract infection, number of patients: 11 n
  Common TEAE, PT Upper respiratory tract infection, percentage of patients: (3.0%)
  Common TEAE, PT Vomiting, number of patients: 2 n
  Common TEAE, PT Vomiting, percentage of patients: (0.5%)
  Common TEAE, SOC Gastrointestinal disorders, number of patients: 29 n
  Common TEAE, SOC Gastrointestinal disorders, percentage of patients: (7.9%)
  Common TEAE, SOC Infections and infestations, number of patients: 112 n
  Common TEAE, SOC Infections and infestations, percentage of patients: (30.7%)
  Common TEAE, SOC Nervous system disorders, number of patients: 19 n
  Common TEAE, SOC Nervous system disorders, percentage of patients: (5.2%)
Patients with T2DM [5]; PT, Safety population
  % of patients experiencing TEAE(s) leading to permanent treatment discontinuation: Cardiopulmonary failure: (0.3%)
  % of patients experiencing TEAE(s) leading to permanent treatment discontinuation: Gallbladder cancer: (0.3%)
  % of patients experiencing TEAE(s) leading to permanent treatment discontinuation: Pregnancy: (0.3%)
  % of patients experiencing serious TEAE(s): Benign prostatic hyperplasia: (0.3%)
  % of patients experiencing serious TEAE(s): Cardiac failure congestive: (0.3%)
  % of patients experiencing serious TEAE(s): Cardiopulmonary failure: (0.3%)
  % of patients experiencing serious TEAE(s): Chest discomfort: (0.3%)
  % of patients experiencing serious TEAE(s): Cholecystitis acute: (0.3%)
  % of patients experiencing serious TEAE(s): Gallbladder cancer: (0.3%)
  % of patients experiencing serious TEAE(s): Glaucoma: (0.3%)
  % of patients experiencing serious TEAE(s): Hypertension: (0.3%)
  % of patients experiencing serious TEAE(s): Hypoglycaemia: (0.3%)
  % of patients experiencing serious TEAE(s): Intervertebral disc protrusion: (0.3%)
  % of patients experiencing serious TEAE(s): Kaposi’s sarcoma: (0.3%)
  % of patients experiencing serious TEAE(s): Meniscus injury: (0.3%)
  % of patients experiencing serious TEAE(s): Non-cardiac chest pain: (0.3%)
  % of patients experiencing serious TEAE(s): Osteomyelitis: (0.3%)
  % of patients experiencing serious TEAE(s): Pneumonia: (0.3%)
  % of patients experiencing serious TEAE(s): Renal impairment: (0.3%)
  % of patients experiencing serious TEAE(s): Wound infection: (0.3%)
  Number of patients experiencing TEAE(s) leading to permanent treatment discontinuation: Angina unstable: 0
  Number of patients experiencing TEAE(s) leading to permanent treatment discontinuation: Benign gastric neoplasm: 0
  Number of patients experiencing TEAE(s) leading to permanent treatment discontinuation: Cardiopulmonary failure: 1
  Number of patients experiencing TEAE(s) leading to permanent treatment discontinuation: Dizziness: 0
  Number of patients experiencing TEAE(s) leading to permanent treatment discontinuation: Gallbladder cancer: 1
  Number of patients experiencing TEAE(s) leading to permanent treatment discontinuation: Hypoglycaemic unconsciousness: 0
  Number of patients experiencing TEAE(s) leading to permanent treatment discontinuation: Nausea: 0
  Number of patients experiencing TEAE(s) leading to permanent treatment discontinuation: Pneumonia: 0
  Number of patients experiencing TEAE(s) leading to permanent treatment discontinuation: Pregnancy: 1
  Number of patients experiencing TEAE(s) leading to permanent treatment discontinuation: Weight increased: 0
  Number of patients experiencing serious TEAE(s): Acute myocardial infarction: 0
  Number of patients experiencing serious TEAE(s): Angina unstable: 0
  Number of patients experiencing serious TEAE(s): Arteriosclerosis coronary artery: 0
  Number of patients experiencing serious TEAE(s): Benign breast neoplasm: 0
  Number of patients experiencing serious TEAE(s): Benign gastric neoplasm: 0
  Number of patients experiencing serious TEAE(s): Benign prostatic hyperplasia: 1
  Number of patients experiencing serious TEAE(s): Breast cancer: 0
  Number of patients experiencing serious TEAE(s): Cardiac failure congestive: 1
  Number of patients experiencing serious TEAE(s): Cardiopulmonary failure: 1
  Number of patients experiencing serious TEAE(s): Chest discomfort: 1
  Number of patients experiencing serious TEAE(s): Cholecystitis acute: 1
  Number of patients experiencing serious TEAE(s): Cholecystitis chronic: 0
  Number of patients experiencing serious TEAE(s): Gallbladder cancer: 1
  Number of patients experiencing serious TEAE(s): Glaucoma: 1
  Number of patients experiencing serious TEAE(s): Hypertension: 1
  Number of patients experiencing serious TEAE(s): Hypoglycaemia: 1
  Number of patients experiencing serious TEAE(s): Hypoglycaemic seizure: 0
  Number of patients experiencing serious TEAE(s): Hypoglycaemic unconsciousness: 0
  Number of patients experiencing serious TEAE(s): Intervertebral disc protrusion: 1
  Number of patients experiencing serious TEAE(s): Kaposi’s sarcoma: 1
  Number of patients experiencing serious TEAE(s): Meniscus injury: 1
  Number of patients experiencing serious TEAE(s): Myocardial infarction: 0
  Number of patients experiencing serious TEAE(s): Non-cardiac chest pain: 2
  Number of patients experiencing serious TEAE(s): Osteoarthritis: 0
  Number of patients experiencing serious TEAE(s): Osteomyelitis: 1
  Number of patients experiencing serious TEAE(s): Pneumonia: 1
  Number of patients experiencing serious TEAE(s): Renal impairment: 1
  Number of patients experiencing serious TEAE(s): Scar: 0
  Number of patients experiencing serious TEAE(s): Squamous cell carcinoma of the tongue: 0
  Number of patients experiencing serious TEAE(s): Subdural haematoma: 0
  Number of patients experiencing serious TEAE(s): Supraventricular tachycardia: 0
  Number of patients experiencing serious TEAE(s): Tendonitis: 0
  Number of patients experiencing serious TEAE(s): Wound infection: 1
Patients with T2DM [5]; SOC, Safety population
  % of patients experiencing TEAE(s) leading to permanent treatment discontinuation: Cardiac disorders: (0.3%)
  % of patients experiencing TEAE(s) leading to permanent treatment discontinuation: Neoplasms benign, malignant and unspecified (incl cysts and polyps): (0.3%)
  % of patients experiencing TEAE(s) leading to permanent treatment discontinuation: Pregnancy, puerperium and perinatal conditions: (0.3%)
  % of patients experiencing serious TEAE(s): Cardiac disorders: (0.5%)
  % of patients experiencing serious TEAE(s): Eye disorders: (0.3%)
  % of patients experiencing serious TEAE(s): General disorders and administration site conditions: (0.8%)
  % of patients experiencing serious TEAE(s): Hepatobiliary disorders: (0.3%)
  % of patients experiencing serious TEAE(s): Infections and infestations: (0.8%)
  % of patients experiencing serious TEAE(s): Injury, poisoning and procedural complications: (0.3%)
  % of patients experiencing serious TEAE(s): Metabolism and nutrition disorders: (0.3%)
  % of patients experiencing serious TEAE(s): Musculoskeletal and connective tissue disorders: (0.3%)
  % of patients experiencing serious TEAE(s): Neoplasms benign, malignant and unspecified (incl cysts and polyps): (0.5%)
  % of patients experiencing serious TEAE(s): Renal and urinary disorders: (0.3%)
  % of patients experiencing serious TEAE(s): Reproductive system and breast disorders: (0.3%)
  % of patients experiencing serious TEAE(s): Vascular disorders: (0.3%)
  Number of patients experiencing TEAE(s) leading to permanent treatment discontinuation: Cardiac disorders: 1
  Number of patients experiencing TEAE(s) leading to permanent treatment discontinuation: Gastrointestinal disorders: 0
  Number of patients experiencing TEAE(s) leading to permanent treatment discontinuation: Infections and infestations: 0
  Number of patients experiencing TEAE(s) leading to permanent treatment discontinuation: Investigations: 0
  Number of patients experiencing TEAE(s) leading to permanent treatment discontinuation: Neoplasms benign, malignant and unspecified (incl cysts and polyps): 1
  Number of patients experiencing TEAE(s) leading to permanent treatment discontinuation: Nervous system disorders: 0
  Number of patients experiencing TEAE(s) leading to permanent treatment discontinuation: Pregnancy, puerperium and perinatal conditions: 1
  Number of patients experiencing serious TEAE(s): Cardiac disorders: 2
  Number of patients experiencing serious TEAE(s): Eye disorders: 1
  Number of patients experiencing serious TEAE(s): General disorders and administration site conditions: 3
  Number of patients experiencing serious TEAE(s): Hepatobiliary disorders: 1
  Number of patients experiencing serious TEAE(s): Infections and infestations: 3
  Number of patients experiencing serious TEAE(s): Injury, poisoning and procedural complications: 1
  Number of patients experiencing serious TEAE(s): Metabolism and nutrition disorders: 1
  Number of patients experiencing serious TEAE(s): Musculoskeletal and connective tissue disorders: 1
  Number of patients experiencing serious TEAE(s): Neoplasms benign, malignant and unspecified (incl cysts and polyps): 2
  Number of patients experiencing serious TEAE(s): Nervous system disorders: 0
  Number of patients experiencing serious TEAE(s): Renal and urinary disorders: 1
  Number of patients experiencing serious TEAE(s): Reproductive system and breast disorders: 1
  Number of patients experiencing serious TEAE(s): Vascular disorders: 1
Patients with T2DM [5]; Safety population
  % of patients experiencing TEAE(s) leading to permanent treatment discontinuation: Any TEAE leading to permanent treatment discontinuation: (0.8%)
  % of patients experiencing serious TEAE(s): Any serious TEAE: (4.9%)
  Number of patients experiencing TEAE(s) leading to permanent treatment discontinuation: Any TEAE leading to permanent treatment discontinuation: 3
  Number of patients experiencing serious TEAE(s): Any serious TEAE: 18
  Patients with any TEAE, number: 191 n
  Patients with any TEAE, percentage: (52.3%)
